Laboratory results as given in patent EP2319871A1 (Sanofi-Aventis, dated 2011).
Values joined by “and” are separate entries in the source; they are usually repeats but may differ in a detail not shown here. Identical values can stand only once.

Legend:
[1] = molecular target: T1, sRAGE (V-C1-C2) lot LP08062 (human, UniProt Q15109 23-342); test: SPR (Biacore), mAb captured on anti-mouse Fc, sRAGE 15 nM, 1:1 Langmuir
T1 construct: extracellular domain; also called Human RAGE; LP08062 (Rage)

RAGE-Fc (human) = RAGE-Fc (human) (UniProt Q15109); test: competition ELISA, mAb 10 µg/mL + RAGE-Fc 10 µg/mL on coated S100A6 (competitor S100A6)
RAGE-Fc [2] = molecular target: T2, RAGE-Fc (human, UniProt Q15109 23-342, limits assumed); test: competition ELISA, RAGE-S100A6 interaction (competitor S100A6)
T2 construct: Format stated for the S100A12 and S100A6 ELISAs; also called hRAGE; not shown: Fc part, detected with anti-hIgG Fc-specific-POD

RAGE-Fc [3] = molecular target: T2, RAGE-Fc; test: competition ELISA, RAGE-Fc 10 µg/mL + diluted mAb on coated S100A6 (competitor S100A6)

T1 sequence (Q15109 23-342): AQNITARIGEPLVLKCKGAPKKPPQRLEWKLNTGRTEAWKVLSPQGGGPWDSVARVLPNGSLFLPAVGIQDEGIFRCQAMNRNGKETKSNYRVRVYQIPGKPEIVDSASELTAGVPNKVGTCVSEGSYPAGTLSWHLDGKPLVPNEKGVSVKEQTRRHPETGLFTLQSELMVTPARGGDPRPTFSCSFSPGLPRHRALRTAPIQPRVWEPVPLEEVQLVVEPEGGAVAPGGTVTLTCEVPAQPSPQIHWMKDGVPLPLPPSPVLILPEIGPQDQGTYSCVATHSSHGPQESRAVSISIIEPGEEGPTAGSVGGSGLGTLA
T2 sequence (Q15109 23-342 limits assumed): as the sequence (Q15109 23-342) above
Sequence of RAGE-Fc (human) (Q15109 23-342 limits assumed): as the sequence (Q15109 23-342) above

Binder	Kd [1]	koff [1]	kon [1]	inhibitory effect (RAGE-Fc (human))	IC50 (RAGE-Fc [2])	IC50 (RAGE-Fc [3])
152 RAGE-1 (antibody, V domains shown, Hybridoma monoclonal antibody, captured on anti-mouse Fc in Biacore; also called LP08104; Protein 152 RAGE-1) VH: DVQLQESGPDLVKPSQSLSLTCTVTGYSITSGYSWHWIRQFPGNKLEWMGYIHYSGSTNYNPSLKSRISITRDTSKNQFFLQLNSVTTEDTATYYCARGGDFAYWGQGTLVTVSA VL: DIVLTQSPASLAVSLGQRATISCRASKSVGTSDSSYMHWYQQKPGQPPKLLIYLASNLESGVPARFSGSGSGTDFTLNIHPVEEEDAATYYCQHSRELYTFGGGTKLEIK	0.687 nM	0.00265 s⁻¹	3.86e+06 M⁻¹ s⁻¹	> 20%	–	–
56 RAGE-1 (antibody, V domains shown, Hybridoma monoclonal antibody, captured on anti-mouse Fc in Biacore; also called LP08103; Protein 56 RAGE-1) VH: QVQLQQSGPELVKPGASVRISCKASGYTFTSYFIHWVKQRPGQGLEWIGWIYPGNVNTKYNEKFKDKATLTADKSSSTAYMQLSNLTSEDSAVYFCVRGQLGDYWGQGITLTVSS VL: DIVMTQSQKFMSTSVGDRVSVTCKASQNVGINVAWYQQKPGQSPKALIYSASYRYSGVPDRFTGSGSGTDFTLIISNVQSEDLAEYFCQQYNNYPRTFGGGTKLEIK	1.87 nM	0.00539 s⁻¹	2.89e+06 M⁻¹ s⁻¹	–	7.7 nM	1.16 µg/mL and 7.73 nM

Binders with a lower Kd [1], results first:

Kd [1]	koff [1]	kon [1]	inhibitory effect (RAGE-Fc (human))	IC50 (RAGE-Fc [2])	IC50 (RAGE-Fc [3])	Binder
0.462 nM	0.00123 s⁻¹	2.66e+06 M⁻¹ s⁻¹	–	–	–	95 RAGE-1 (antibody, V domains shown, Hybridoma monoclonal antibody, captured on anti-mouse Fc in Biacore; also called Protein 95 RAGE-1) VH: QVQLQQPGAELVKPGASVKLSCKASGYTFTSYWMHWVKQRPGQGLEWIGESNPSNGRTNYNEKFKNKATLTVDKSSSTAYMQLSSLTSEDSAVYYCARAPYYGFDYWGQGTTLTVSS VL: QAVVTQESALTTSPGETVTLTCRSSTGAVTTSNYANWVQEKPDHLFTGLTGGTNNRAPGVPARFSGSLIGDKAALTITGAQTEDEAIYFCALWYSNHWVFGGGTKLTVL
0.303 nM	0.00157 s⁻¹	5.19e+06 M⁻¹ s⁻¹	–	–	–	140 RAGE-1 (antibody, V domains shown, Hybridoma monoclonal antibody, captured on anti-mouse Fc in Biacore; also called Protein 140 RAGE-1) VH: QVQLQQPGAELVKPGASVRLSCKASGYTFTSYWMHWVKQRPGQGLEWIGEINPSNGRTNYNEKFKSKATLTVDKSSSTAYMQLSSLTSEDSAVYYCARDGLGYRPIAMDYWGQGTSVTVSS VL: QIVLTQSPAIMSASPGEKVTISCSASSSVSYMYWYQQKPGSSPKPWIYRTSNLASGVPARFSGSGSGTSYSLTISSMEAEDAATYYCQQYHSYPPMYTFGGGTKLEIK
0.236 nM	0.00136 s⁻¹	5.76e+06 M⁻¹ s⁻¹	–	–	–	130 RAGE-1 (antibody, V domains shown, Hybridoma monoclonal antibody, captured on anti-mouse Fc in Biacore; also called Protein 130 RAGE-1) VH: EVQLVESGGGLVKPGGSLKLSCAASGFTFSSYVMSWVRQSPEKRLEWVAEISSGGSYTYYPDTVTGRFTISRDNDKNTLYLEMSSLRSEDTAMYYCARPPYGKDAMDYWGQGTSVTVSS VL: QIVLTQSPAIMSASPGEKVTMTCSASSSVSYMHWYQQKSGTSPKRWISDTSKLASGVPARFSGSGSGTSYSLTISSMEAEDAATYYCQQWSSNPPTFGGGTKLEIK
